Experimental data reported in patent publication US20200317768A1 (published 2020).
Substitutions are numbered along the chain they refer to.

T1: human FcγRIIb extracellular domain, C-terminal His-tag (human, UniProt P31994 43-217)
T1 construct: also called FcgRIIb (human); not shown: His-tag added to C-terminus
T1 sequence: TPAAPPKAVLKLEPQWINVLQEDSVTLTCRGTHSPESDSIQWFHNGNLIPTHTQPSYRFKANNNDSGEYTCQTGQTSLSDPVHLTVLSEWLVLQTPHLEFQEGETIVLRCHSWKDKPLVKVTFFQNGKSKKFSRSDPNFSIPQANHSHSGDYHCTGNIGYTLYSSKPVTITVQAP

T2: human FcγRIIaH extracellular domain, C-terminal His-tag (human, UniProt P12318 34-217)
T2 construct: also called human FcγRIIa (type H); FcgRIIaH; not shown: His-tag added to C-terminus
T2 sequence: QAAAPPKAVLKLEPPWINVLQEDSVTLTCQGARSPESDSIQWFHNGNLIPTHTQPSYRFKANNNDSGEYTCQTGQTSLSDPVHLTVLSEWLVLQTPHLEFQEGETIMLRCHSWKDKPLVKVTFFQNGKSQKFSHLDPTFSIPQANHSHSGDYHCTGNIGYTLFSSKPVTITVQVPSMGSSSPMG

T3: cynomolgus monkey FcγRIIb extracellular domain, C-terminal His-tag (cynomolgus monkey)
T3 construct: also called cyno FcγRIIb; cynoFcγRIIb; not shown: His-tag added to C-terminus
T3 chain: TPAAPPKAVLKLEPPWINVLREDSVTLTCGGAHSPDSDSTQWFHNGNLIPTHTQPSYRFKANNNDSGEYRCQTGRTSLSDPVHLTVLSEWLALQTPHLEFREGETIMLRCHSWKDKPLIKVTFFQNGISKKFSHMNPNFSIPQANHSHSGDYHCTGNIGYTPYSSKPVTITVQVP

T4: cynomolgus monkey FcγRIIa1 extracellular domain, C-terminal His-tag (cynomolgus monkey)
T4 construct: also called cyno FcγRIIa1; cynoFcgRIIa1; not shown: His-tag added to C-terminus
T4 chain: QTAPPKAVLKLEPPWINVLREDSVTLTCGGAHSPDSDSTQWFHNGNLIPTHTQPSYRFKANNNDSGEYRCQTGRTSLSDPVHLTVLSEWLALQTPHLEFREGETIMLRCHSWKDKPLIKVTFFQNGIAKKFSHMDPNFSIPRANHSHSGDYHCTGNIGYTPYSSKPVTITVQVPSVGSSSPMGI

T5: cynomolgus monkey FcγRIIa2 extracellular domain, C-terminal His-tag (cynomolgus monkey)
T5 construct: also called cyno FcγRIIa2; cynoFcgRIIa2; not shown: His-tag added to C-terminus
T5 chain: T4 chain with P95T, T121A, I127K, A128S, K130N, D135N, R142Q

T6: cynomolgus monkey FcγRIIa3 extracellular domain, C-terminal His-tag (cynomolgus monkey)
T6 construct: also called cyno FcγRIIa3; cynoFcgRIIa3; not shown: His-tag added to C-terminus
T6 chain: T4 chain with P95T, T121A, A128S, H133P, D135N

B1: M103205H795-MY276/M103202L889-SK1 (antibody, human IgG1, kappa)
heavy: QVTLKESGPVLVKPTETLTLTCTVSGIDLSHDDISWVRQAPGKGLEWVGIISYAGSTYYASWAKGRLTISKDTSKNQVVLTMTNMDPVDTATYYCARGVPAYSHGGDLWGQGTLVTVSSASTKGPSVFPLAPSSKSTSGGTAALGCLVKDYFPEPVTVSWNSGALTSGVHTFPAVLQSSGLYSLSSVVTVPSSSLGTQTYICNVNHKPSNTKVDKKVEPKSCDKTHTCPPCPAPELLIGPSVFLFPPKPKDTLMISRTPEVTCVVVDVSDEDPEVKFNWYVDGVEVHNAKTKPREEQYNSTYRVVSVLTVLHQDWLNGKEYKCKVSNKALPKPIEKTISKAKGQPREPQVYTLPPSREEMTKNQVSLTCLVKGFYPSDIAVEWESNGQPENNYKTTPKVLDSDGSFFLYSKLTVDKSRWQQGNVFSCSVMHEALHNHYTQKSLSLSP
light: DIVMTQSPATLSLSPGERATLSCTSSQSVYHANWLSWFQQKPGQPPKLLIYWASTLAYGVPSRFSGSGSGTDFTLTISSLQPEDAATYYCAGGYGGGRYAFGQGTKVEIKRTVAAPSVFIFPPSDEQLKSGTASVVCLLNNFYPREAKVQWKVDNALQSGNSQESVTEQDSKDSTYSLSSTLTLSKADYEKHKVYACEVTHQGLSSPVTKSFNRGEC
B2: M103205H795-MY292/M103202L889-SK1 (antibody, human IgG1, kappa)
heavy: B1 heavy with I238G, G239Y, Q297L, K398M
light: B1 light
B3: M103205H795-MY311/M103202L889-SK1 (antibody, human IgG1, kappa)
heavy: B1 heavy with I238T, D270E, Q297L, K398P
light: B1 light
B4: M103205H795-MY318/M103202L889-SK1 (antibody, human IgG1, kappa)
heavy: B1 heavy with I238L, D270E, K328T, K398M
light: B1 light
B5: M103205H795-MY310/M103202L889-SK1 (antibody, human IgG1, kappa)
heavy: B1 heavy with I238T, D270E, K328T, K398P
light: B1 light
B6: M103205H795-MY281/M103202L889-SK1 (antibody, human IgG1, kappa)
heavy: B1 heavy with I238Q, Q297L, K398P
light: B1 light
B7: M103205H795-MY321/M103202L889-SK1 (antibody, human IgG1, kappa)
heavy: B1 heavy with I238H, K398M
light: B1 light
B8: M103205H795-MY312/M103202L889-SK1 (antibody, human IgG1, kappa)
heavy: B1 heavy with I238T, D270E, K328T, K398M
light: B1 light
B9: M103205H795-MY308/M103202L889-SK1 (antibody, human IgG1, kappa)
heavy: B1 heavy with I238T, D270E, K398P
light: B1 light
B10: M103205H795-MY309/M103202L889-SK1 (antibody, human IgG1, kappa)
heavy: B1 heavy with I238T, D270E, K398M
light: B1 light
B11: M103205H795-MY278/M103202L889-SK1 (antibody, human IgG1, kappa)
heavy: B1 heavy with I238M, Q297L, K398P
light: B1 light
B12: M103205H795-MY279/M103202L889-SK1 (antibody, human IgG1, kappa)
heavy: B1 heavy with I238H, Q297L, K398P
light: B1 light
B13: M103205H795-MY293/M103202L889-SK1 (antibody, human IgG1, kappa)
heavy: B1 heavy with I238G, G239Y, D270E, Q297L
light: B1 light

Molecular target: T7, cynomolgus monkey FcγRIIIaS extracellular domain, C-terminal His-tag (cynomolgus monkey, UniProt A3RFZ7 21-206 (rhesus entry))
T7 construct: also called cyno FcγRIIIaS; cynoFcγRIIIaS; not shown: His-tag added to C-terminus
Test: SPR (Biacore), KD of SG1 / KD of variant;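 further: relative to parent M103205H795-SG1 carrying the SG1 human heavy chain constant region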

T7 sequence (A3RFZ7 21-206): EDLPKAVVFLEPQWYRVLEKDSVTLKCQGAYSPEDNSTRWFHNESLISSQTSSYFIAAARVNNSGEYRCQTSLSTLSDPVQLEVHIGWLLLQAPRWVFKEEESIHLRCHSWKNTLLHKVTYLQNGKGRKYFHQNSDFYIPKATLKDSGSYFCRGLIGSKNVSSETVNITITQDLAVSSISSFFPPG

KD fold (SG1 = 1) | Binder
0.3 fold | B1
0.05 fold | B2
0.35 fold | B3
0.24 fold | B4
0.2 fold | B5
0.49 fold | B6
0.33 fold | B7
0.55 fold | B8
0.16 fold | B9
0.3 fold | B10
0.49 fold | B11
0.15 fold | B12
0.05 fold | B13

Molecular target: T1, human FcγRIIb extracellular domain, …
Test: SPR (Biacore), KD of SG1 / KD of variant;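 further: relative to parent M103205H795-SG1 carrying the SG1 human heavy chain constant region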

KD fold (SG1 = 1) | Binder
1.9 fold | B1
32.9 fold | B2
2.2 fold | B3
1 fold | B4
1.6 fold | B5
2.6 fold | B6
1.8 fold | B7
4.2 fold | B8
1.1 fold | B9
2.9 fold | B10
1 fold | B11
1 fold | B12
30.7 fold | B13

Molecular target: T2, human FcγRIIaH extracellular domain, …
Test: SPR (Biacore), KD of SG1 / KD of variant;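 further: relative to parent M103205H795-SG1 carrying the SG1 human heavy chain constant region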

KD fold (SG1 = 1) | Binder
13 fold | B1
0.7 fold | B2
3.5 fold | B3
0.6 fold | B4
1.7 fold | B5
3.3 fold | B6
3.7 fold | B7
6.3 fold | B8
1.5 fold | B9
4.9 fold | B10
1.3 fold | B11
4.9 fold | B12
0.5 fold | B13

Molecular target: T3, cynomolgus monkey FcγRIIb extracellular …
Test: SPR (Biacore), KD of SG1 / KD of variant;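 further: relative to parent M103205H795-SG1 carrying the SG1 human heavy chain constant region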

KD fold (SG1 = 1) | Binder
5.3 fold | B1
4 fold | B2
2.3 fold | B3
0.8 fold | B4
1.9 fold | B5
2.9 fold | B6
2.8 fold | B7
4.5 fold | B8
1.2 fold | B9
2.9 fold | B10
1.6 fold | B11
2 fold | B12
2.1 fold | B13

Molecular target: T8, human FcγRIIIaV extracellular domain, C-terminal His-tag (human, UniProt P08637 17-208)
T8 construct: also called FcgRIIIaV; not shown: His-tag added to C-terminus
Test: SPR (Biacore), KD of SG1 / KD of variant

T8 sequence (P08637 17-208 F176V): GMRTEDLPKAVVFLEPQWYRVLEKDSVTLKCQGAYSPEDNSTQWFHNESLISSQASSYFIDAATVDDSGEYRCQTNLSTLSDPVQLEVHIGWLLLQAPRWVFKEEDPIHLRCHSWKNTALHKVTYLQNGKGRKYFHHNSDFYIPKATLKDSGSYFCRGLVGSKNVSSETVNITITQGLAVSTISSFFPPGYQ

KD fold (SG1 = 1) | Binder
0.14 fold | B1
0.03 fold | B2
0.11 fold | B3
0.05 fold | B4
0.12 fold | B5
0.39 fold | B6
0.74 fold | B7
0.29 fold | B8
0.03 fold | B9
0.19 fold | B10
0.24 fold | B11
0.12 fold | B12
0.02 fold | B13

Molecular target: T4, cynomolgus monkey FcγRIIa1 …
Test: SPR (Biacore), KD of SG1 / KD of variant

KD fold (SG1 = 1) | Binder
2.9 fold | B1
2.1 fold | B2
1.4 fold | B3
0.4 fold | B4
1.1 fold | B5
1.7 fold | B6
1.4 fold | B7
2.3 fold | B8
1 fold | B9
1.3 fold | B10
1.1 fold | B11
1.1 fold | B12
1.1 fold | B13

Molecular target: T5, cynomolgus monkey FcγRIIa2 …
Test: SPR (Biacore), KD of SG1 / KD of variant

KD fold (SG1 = 1) | Binder
4.6 fold | B1
2 fold | B2
1.5 fold | B3
0.7 fold | B4
1.8 fold | B5
2 fold | B6
2.3 fold | B7
3.4 fold | B8
1.9 fold | B9
2 fold | B10
1.4 fold | B11
1.5 fold | B12
1.5 fold | B13

Molecular target: T6, cynomolgus monkey FcγRIIa3 …
Test: SPR (Biacore), KD of SG1 / KD of variant

KD fold (SG1 = 1) | Binder
3.8 fold | B1
7.7 fold | B2
2 fold | B3
0.5 fold | B4
2.4 fold | B5
1.9 fold | B6
3.9 fold | B7
4.6 fold | B8
1.3 fold | B9
2.4 fold | B10
1.7 fold | B11
3.6 fold | B12
4.4 fold | B13
